{"source": "paper PMC8065039", "target": "CA521^FALA (human IgG4 monoclonal antibody with the F234A/L235A mutation) (human (from human antibody transgenic mice))", "sequence (heavy, as listed by the source, chain 1 of 2)": "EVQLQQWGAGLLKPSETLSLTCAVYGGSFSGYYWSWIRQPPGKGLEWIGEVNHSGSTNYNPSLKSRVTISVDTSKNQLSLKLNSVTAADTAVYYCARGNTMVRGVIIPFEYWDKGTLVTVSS", "sequence (light, as listed by the source, chain 2 of 2)": "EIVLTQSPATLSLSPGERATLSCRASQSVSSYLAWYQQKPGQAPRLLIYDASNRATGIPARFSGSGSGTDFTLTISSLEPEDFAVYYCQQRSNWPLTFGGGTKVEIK", "assay": "BLI"}
{"substance": "SARS-CoV-2 RBD protein (40592-V05H, Sino Biological) (from UniProt P0DTC2) (domain or fragment)", "values": [{"measurement": "Kd", "result": 0.698, "unit": "nM"}]}
